Assay results taken from PMC11404848 (2024).

Target: Sensor^BtsK (Stenotrophomonas maltophilia CGMCC …, labelled with the Monolith NT.115 Protein Labeling Kit Red NHS (a dye that reacts with amines))
Experiment: MST

B1: BtsD^Δ(SP-GGDEF) (domain or fragment)
chain: APPLRDYAIDVWTSRNGLPHNSLRDIAQTPEGHLWFATWEGLVRYNGLDFTVFDRSTRPGLRDNGIGALLVDRQGGLWISDSRGNVSHRGNDGQWRVWEHQADTPQVLIQSMQMDSQGRLWLLYEGKGIGYLTPDKGIVYQAPAADLPMAMSFTKLVVDAQDRVWVGTLDGLVLRDNDGVLKRAPAAWGLGAGTGLSWPYRAPDGALWIVAGERLYRVEDDQLVLVHRLPGQLHMTSMLQDRHGDLWLGTENQGLLRISAHGLERLPAGLNLPGGRVVSLREDAEGSIWVGANGGLYRLRETLFSSYTERDGLSGDYVRTVLEDRDRQLWVGSASGLDLQTPDGRFRAVPLHNRGGKAPSVLSLAQGPDGDLWVGTFGDGVYRLDRDGSLRHNYAAADGMPGGNIRAISVDPQGRVWAGTQKGVVRIDGDRVQVSTAPGMPGGLITALEHDHQGNLWIGTIEGIRVLRGDHVQSIDLAPMGGGRSVFGFHQLGEAMWISSDRGLYRWRDGKLARVGLEQGMPVDAVFQLVPDRLGNVWISSNRGVLRTDMATLNAVADGRAPRVVVERYNEIDGMANAQANGSSGPSAILRQDGTFWVVTAGGLSTVDPQRLQRFRERPSPPAAIESVQVDGAPVHWEGPDRNYIPGGRRLAVSYVGLSYLMSDRIRYRTRLEGLDAGWVERGPQRSVEFVGLPPGDYTLHVSAAHPGGAWGQQEAVWSFTVEPFWWQRRSVQLLGGLLLLAGLVVLYRLLLQQLKASNLRLARRVDEATFDLQAKTVHLQALNQEKTELAER
Kd: 3.17 µM
